Measurements published in PMC3633458.

Key:
[1] = target: Escherichia coli-expressed Plasmodium falciparum merozoite surface protein 3 (EcMSP3) (Plasmodium falciparum (FVO strain)); experiment: AUC
[2] = target: Escherichia coli-expressed Plasmodium falciparum merozoite surface protein 3 (EcMSP3) (Plasmodium falciparum (FVO strain)); experiment: SEC-MALS

“Escherichia coli-expressed Plasmodium falciparum merozoite surface protein 3 (EcMSP3) (domain or fragment)” showed a stoichiometry N [1] of 2 and a stoichiometry N [2] of 2.
